For seven molecules, normalised SPOT signal, Boehringer light units (BLU); mean over the file's lines of this peptide results are on record in PMC314469, “Protein Interaction Networks by Proteome Peptide Scanning” (PLoS Biology, 2004).

Sequences and labels used below:
T1: Myo5 SH3 (MYO5_YEAST), Q04439
T1 chain: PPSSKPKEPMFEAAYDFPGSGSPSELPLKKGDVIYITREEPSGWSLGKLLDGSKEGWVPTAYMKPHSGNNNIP

T2: Boi2 SH3 (BOI2_YEAST), P39969
T2 chain: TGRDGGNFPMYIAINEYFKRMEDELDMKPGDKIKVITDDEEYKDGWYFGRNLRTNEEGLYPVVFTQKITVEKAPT

T3: Rvs167 SH3 (RV167_YEAST), P39743
T3 chain: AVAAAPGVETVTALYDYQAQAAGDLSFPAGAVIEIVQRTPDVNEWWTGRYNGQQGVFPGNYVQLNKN

T4: Yhr016c SH3 (YSC84_YEAST), P32793
T4 chain: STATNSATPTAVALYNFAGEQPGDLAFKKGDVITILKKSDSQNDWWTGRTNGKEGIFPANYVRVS

T5: Yfr024 SH3 (LSB3_YEAST), P43603
T5 chain: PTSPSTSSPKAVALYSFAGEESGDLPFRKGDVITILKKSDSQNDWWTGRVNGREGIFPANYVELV

T6: Boi1 SH3 (BOI1_YEAST), P38041
T6 chain: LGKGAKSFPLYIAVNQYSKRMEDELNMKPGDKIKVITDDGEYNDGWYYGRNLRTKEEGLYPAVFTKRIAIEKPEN

Sequence of Sho1 SH3 (SHO1_YEAST), P40073 (P40073 295-366): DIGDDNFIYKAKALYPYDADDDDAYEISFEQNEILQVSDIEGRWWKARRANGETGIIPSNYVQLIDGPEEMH

One experiment has as its target T1, Myo5 SH3 (MYO5_YEAST), Q04439. The experiment is described as follows: SPOT array.
YVNAKLDPSLPSQY [YDR147W 90-103] returned a normalised SPOT signal, Boehringer light units (BLU); mean over the file's lines of this peptide of 97.1.
YSYLRLLPWWPSLA [YJL083W 456-469]: the normalised SPOT signal, Boehringer light units (BLU); mean over the file's lines of this peptide was found to be 188.
The molecule YFVKKIRPGNPLTK [YJL149W 279-292] came in with a normalised SPOT signal, Boehringer light units (BLU); mean over the file's lines of this peptide of 508.
The molecule YKNRKNLPTIPIRL [YGL085W 139-152] displayed a normalised SPOT signal, Boehringer light units (BLU); mean over the file's lines of this peptide of 961.
Take YILPKTDPRSPYYI [YPR115W 96-109]: the normalised SPOT signal, Boehringer light units (BLU); mean over the file's lines of this peptide worked out at 188.
With YVVKKNFPVSPNYT [YMR015C 408-421], the normalised SPOT signal, Boehringer light units (BLU); mean over the file's lines of this peptide stood at 194.
For YGSEKGSPAGPSAV [YDR429C 58-71], the normalised SPOT signal, Boehringer light units (BLU); mean over the file's lines of this peptide was 50.3.

A further experiment concerns the target T2, Boi2 SH3 (BOI2_YEAST), P39969. Description: SPOT array.
With YVNAKLDPSLPSQY [YDR147W 90-103], the normalised SPOT signal, Boehringer light units (BLU); mean over the file's lines of this peptide is 10.8.
As for YSYLRLLPWWPSLA [YJL083W 456-469], the normalised SPOT signal, Boehringer light units (BLU); mean over the file's lines of this peptide worked out at 54.3.
Turning to YFVKKIRPGNPLTK [YJL149W 279-292], the normalised SPOT signal, Boehringer light units (BLU); mean over the file's lines of this peptide is 58.3.
Same read-out and setting: with YKNRKNLPTIPIRL [YGL085W 139-152] the figure was 48.9; with YILPKTDPRSPYYI [YPR115W 96-109], 44.9; with YVVKKNFPVSPNYT [YMR015C 408-421], 28.9.
Still for that read-out and setting: with YGSEKGSPAGPSAV [YDR429C 58-71] the figure was 40.

The target of a further experiment is T3, Rvs167 SH3 (RV167_YEAST), P39743. The experiment is described as follows: SPOT array.
The molecule YVNAKLDPSLPSQY [YDR147W 90-103] returned a normalised SPOT signal, Boehringer light units (BLU); mean over the file's lines of this peptide of 41.1.
As for YSYLRLLPWWPSLA [YJL083W 456-469], the normalised SPOT signal, Boehringer light units (BLU); mean over the file's lines of this peptide was 115.
Same read-out and setting: next, YFVKKIRPGNPLTK [YJL149W 279-292]: 220; YKNRKNLPTIPIRL [YGL085W 139-152]: 2750; YILPKTDPRSPYYI [YPR115W 96-109]: 176.
YVVKKNFPVSPNYT [YMR015C 408-421]: the normalised SPOT signal, Boehringer light units (BLU); mean over the file's lines of this peptide turned out to be 33.5.
On to YGSEKGSPAGPSAV [YDR429C 58-71], for which the normalised SPOT signal, Boehringer light units (BLU); mean over the file's lines of this peptide came out at 28.6.

The target in another experiment is T4, Yhr016c SH3 (YSC84_YEAST), P32793. Description: SPOT array.
The molecule YVNAKLDPSLPSQY [YDR147W 90-103] registered a normalised SPOT signal, Boehringer light units (BLU); mean over the file's lines of this peptide of 17.8.
YSYLRLLPWWPSLA [YJL083W 456-469]: the normalised SPOT signal, Boehringer light units (BLU); mean over the file's lines of this peptide turned out to be 99.5.
The same measure, in the same setting: next, YFVKKIRPGNPLTK [YJL149W 279-292]: 92.2.
The molecule YKNRKNLPTIPIRL [YGL085W 139-152] had a normalised SPOT signal, Boehringer light units (BLU); mean over the file's lines of this peptide of 538.
Molecule YILPKTDPRSPYYI [YPR115W 96-109] yielded a normalised SPOT signal, Boehringer light units (BLU); mean over the file's lines of this peptide of 27.8.
In turn, YVVKKNFPVSPNYT [YMR015C 408-421] displayed a normalised SPOT signal, Boehringer light units (BLU); mean over the file's lines of this peptide of 39.5.
YGSEKGSPAGPSAV [YDR429C 58-71] had a normalised SPOT signal, Boehringer light units (BLU); mean over the file's lines of this peptide of 8.8.

The target of another experiment is T5, Yfr024 SH3 (LSB3_YEAST), P43603. The experiment is described as follows: SPOT array.
The molecule YVNAKLDPSLPSQY [YDR147W 90-103] came in with a normalised SPOT signal, Boehringer light units (BLU); mean over the file's lines of this peptide of 91.6.
With YSYLRLLPWWPSLA [YJL083W 456-469], the normalised SPOT signal, Boehringer light units (BLU); mean over the file's lines of this peptide is 94.4.
Turning to YFVKKIRPGNPLTK [YJL149W 279-292], the normalised SPOT signal, Boehringer light units (BLU); mean over the file's lines of this peptide came to 244.
The molecule YKNRKNLPTIPIRL [YGL085W 139-152] showed a normalised SPOT signal, Boehringer light units (BLU); mean over the file's lines of this peptide of 2960.
As for YILPKTDPRSPYYI [YPR115W 96-109], the normalised SPOT signal, Boehringer light units (BLU); mean over the file's lines of this peptide amounted to 113.
Consider YVVKKNFPVSPNYT [YMR015C 408-421], for which the normalised SPOT signal, Boehringer light units (BLU); mean over the file's lines of this peptide came out at 163.
The molecule YGSEKGSPAGPSAV [YDR429C 58-71] yielded a normalised SPOT signal, Boehringer light units (BLU); mean over the file's lines of this peptide of 13.4.

The next experiment addresses Sho1 SH3 (SHO1_YEAST), P40073. The experiment is described as follows: SPOT array.
Turning to YVNAKLDPSLPSQY [YDR147W 90-103], the normalised SPOT signal, Boehringer light units (BLU); mean over the file's lines of this peptide was found to be 29.3.
YSYLRLLPWWPSLA [YJL083W 456-469] registered a normalised SPOT signal, Boehringer light units (BLU); mean over the file's lines of this peptide of 138.
Still for that read-out and setting: next, YFVKKIRPGNPLTK [YJL149W 279-292]: 139; YKNRKNLPTIPIRL [YGL085W 139-152]: 28200.
Consider YILPKTDPRSPYYI [YPR115W 96-109], for which the normalised SPOT signal, Boehringer light units (BLU); mean over the file's lines of this peptide came out at 19.5.
For YVVKKNFPVSPNYT [YMR015C 408-421], the normalised SPOT signal, Boehringer light units (BLU); mean over the file's lines of this peptide was found to be 332.
With YGSEKGSPAGPSAV [YDR429C 58-71], the normalised SPOT signal, Boehringer light units (BLU); mean over the file's lines of this peptide was 46.4.

Another experiment addresses T6, Boi1 SH3 (BOI1_YEAST), P38041. Description: SPOT array.
The molecule YVNAKLDPSLPSQY [YDR147W 90-103] yielded a normalised SPOT signal, Boehringer light units (BLU); mean over the file's lines of this peptide of 71.4.
Regarding YSYLRLLPWWPSLA [YJL083W 456-469], the normalised SPOT signal, Boehringer light units (BLU); mean over the file's lines of this peptide was found to be 94.5.
Consider YFVKKIRPGNPLTK [YJL149W 279-292], for which the normalised SPOT signal, Boehringer light units (BLU); mean over the file's lines of this peptide worked out at 410.
Molecule YKNRKNLPTIPIRL [YGL085W 139-152] returned a normalised SPOT signal, Boehringer light units (BLU); mean over the file's lines of this peptide of 12400.
YILPKTDPRSPYYI [YPR115W 96-109]: the normalised SPOT signal, Boehringer light units (BLU); mean over the file's lines of this peptide is 222.
Take YVVKKNFPVSPNYT [YMR015C 408-421]: the normalised SPOT signal, Boehringer light units (BLU); mean over the file's lines of this peptide is 234.
Consider YGSEKGSPAGPSAV [YDR429C 58-71], for which the normalised SPOT signal, Boehringer light units (BLU); mean over the file's lines of this peptide stood at 65.1.
